Reference: patent US20220195008A1 (published 2022)

B1: anti-MAGE-A12 TCR FM8 (TCR, V domains shown)
Valpha: AQTVTQSQPEMSVQEAETVTLSCTYDTSESDYYLFWYKQPPSRQMILVIRQEAYKQQNATENRFSVNFQKAAKSFSLKISDSQLGDAAMYFCAYRSAQGGSEKLVFGKGTKLTVNP
Vbeta: ETGVTQTPRHLVMGMTNKKSLKCEQHLGHNAMYWYKQSAKKPLELMFVYSLEERVENNSVPSRFSPECPNSSHLFLHLHTLQPEDSALYLCASSQTTYYNEQFFGPGTRLTVL
B2: anti-MAGE-A12 TCR 502 (TCR, V domains shown)
Valpha: GENVEQHPSTLSVQEGDSAVIKCTYSDSASNYFPWYKQELGKRPQLIIDIRSNVGEKKDQRIAVTLNKTAKHFSLHITETQPEDSAVYFCAASGATDKLIFGTGTRLQVFP
Vbeta: EADIYQTPRYLVIGTGKKITLECSQTMGHDKMYWYQQDPGMELHLIHYSYGVNSTEKGDLSSESTVSRIRTEHFPLTLESARPSHTSQYLCASSGGHEQYFGPGTRLTVT

Legend:
[1] = target: T1, MAGE-A12 peptide on HLA-C*07:01 (human); experiment: cytokine release
T1 peptide: VRIGHLYIL

[2] = target: T2, MAGE-A12 peptide on HLA-C*07:02 (human); experiment: cytokine release
T2 peptide: VRIGHLYIL

[3] = target: T1, MAGE-A12 peptide on HLA-C*07:01; experiment: killing

Row | Binder | binding result [1] | binding result [2] | binding result [3]
1 | B1 | no recognition | recognises | 
2 | B2 |  |  | recognises
